Source: publication PMC4357533 (Journal of molecular biology, 2015)
Changes are numbered by the printed parent chain. In names and notes the source's numbering stands.

B1: Sis1 single alteration variant K199N (natural protein, S. cerevisiae, UniProt P25294 1-352, looked up)
chain: MVKETKLYDLLGVSPSANEQELKKGYRKAALKYHPDKPTGDTEKFKEISEAFEILNDPQKREIYDQYGLEAARSGGPSFGPGGPGGAGGAGGFPGGAGGFSGGHAFSNEDAFNIFSQFFGGSSPFGGADDSGFSFSSYPSGGGAGMGGMPGGMGGMHGGMGGMPGGFRSASSSPTYPEEETVQVNLPVSLEDLFVGKKNSFKIGRKGPHGASEKTQIDIQLKPGWKAGTKITYKNQGDYNPQTGRRKTLQFVIQEKSHPNFKRDGDDLIYTLPLSFKESLLGFSKTIQTIDGRTLPLSRVQPVQPSQTSTYPGQGMPTPKNPSQRGNLIVKYKVDYPISLNDAQKRAIDENF
B2: Sis1 single alteration variant K202N (natural protein, S. cerevisiae, UniProt P25294 1-352, looked up)
chain: B1 chain with N199K, K202N
B3: Sis1 single alteration variant K214N (natural protein, S. cerevisiae, UniProt P25294 1-352, looked up)
chain: B1 chain with N199K, K214N

Target: Ssa1 Hsp70 (S. cerevisiae, UniProt P10591 1-642)
Sequence (P10591 whole entry): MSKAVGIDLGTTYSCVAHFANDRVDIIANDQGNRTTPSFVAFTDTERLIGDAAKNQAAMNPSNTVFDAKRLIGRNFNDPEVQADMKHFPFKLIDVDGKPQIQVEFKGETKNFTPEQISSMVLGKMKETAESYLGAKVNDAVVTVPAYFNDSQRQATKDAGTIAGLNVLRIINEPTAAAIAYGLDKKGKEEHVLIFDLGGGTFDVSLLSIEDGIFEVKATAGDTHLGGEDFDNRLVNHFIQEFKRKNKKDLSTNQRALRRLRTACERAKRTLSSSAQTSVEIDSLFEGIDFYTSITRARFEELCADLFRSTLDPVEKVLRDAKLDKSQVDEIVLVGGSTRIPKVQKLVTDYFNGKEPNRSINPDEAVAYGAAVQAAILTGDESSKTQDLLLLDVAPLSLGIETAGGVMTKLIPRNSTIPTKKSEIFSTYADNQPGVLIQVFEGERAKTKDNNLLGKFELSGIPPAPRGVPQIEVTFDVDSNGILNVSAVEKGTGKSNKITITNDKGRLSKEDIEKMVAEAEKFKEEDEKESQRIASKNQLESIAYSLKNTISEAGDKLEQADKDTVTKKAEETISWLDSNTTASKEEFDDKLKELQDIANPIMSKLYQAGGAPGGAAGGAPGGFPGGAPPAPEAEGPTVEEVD
Test: ELISA

Binding result, binds:
B1
B2
B3
